Test results published in the RNAGym collection of RNA variant scans (doi:10.1073/pnas.2313332121).
Fewer inactive variants are shown than the library holds.

B1: TPR 5TU (parent)
chain: GGAUCUUCUCGAUCUAACAAAAAAGACAAAUCUGCCACAAAGCUUGAGAGCAUCUUCGGAUGCAGAGGCGGCAGCCUUCGGUGGCGCGAUAGCGCCAACGUUCUCAACUAUGACACGCAAAACGCGUGCUCCGUUGAAUGGAGUUUAUCAUG

Variants of: B1
Test: polymerase ribozyme fitness, log enrichment relative to wild type (log ratio); higher = more active; in vitro selection for triplet polymerase activity
Outline: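 To select mutant libraries of each subunit of a heterodimeric triplet polymerase ribozyme, built by PCR and transcribed, each was annealed with a biotinylated primer, partner subunit and triplets, then incubated frozen at −7 °C. Extended constructs were gel-excised, captured on streptavidin beads and amplified by RT-PCR, in one round carried out in triplicate. Illumina sequencing of input and output libraries kept genotypes with ≥10 input reads and ≥1 read per output. Fitness is the base-2 logarithm of genotype enrichment relative to wild-type enrichment, from inverse-variance-weighted replicate averages.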

Going from GGAUCUUCUCGAUCUAACAAAAAAGACAAAUCUGCCACAAAGCUUGAGAGCCUCUUCGGAUGCAGAGGCGGCAGCCUUCGGUGGCGCGAUAGCGCCAACGUUCUCAACUAUGACAGGCAAAACGCGUGCUCCGUUGAAUGGAGUUUAUCAUG [A52C C116G] to GGAUCUUCUCGAUCUAACAAAAAAGACAAAUCUGCCACAAAGCUUGAGAGCCUCUUCGGAUGCAGAGGCGGUAGCCUUCGGUGGCGCGAUAGCGCAAACGUUCUCAACUAUGACACGCAAAAUGCGUGCUCCGUUGAAUGGAGUUUAUCAUG [A52C C72U C96A C123U], the “polymerase ribozyme fitness (log ratio)” value falls from -1.21 to -2.72.

First: GGAUCUUCUCGAUCUAACAAAAAAGACAAAUCUGCCACAAAGCUUGAGAGCCUCUUCGGAUGCAGAGGCGGCAGCCUUCGGUGGAGCGAUAGCGCCAACGUUCUCAACUAUGACACGCAAAACGCGUGCUCCGUUGAAUGGAGUUUAUCAUG [A52C C85A]
Second: GGAUCUUCUCGAUCUAACAAAAAAGACAAAUCUGCCACAAAGCUUGAGAGCCUCUUCGGAUGCAGACGCGGCAGCCUUCGGUGGCGCGCUAGCGCCAACGUUCUCGGCUAUGACACGCAAAACGCGUGCUCCGUUGAAUGGAGUUUAUCAUG [A52C G67C A89C A106G A107G]
The “polymerase ribozyme fitness (log ratio)” value of the first is higher: -3.22 for the first, at most -4.2 for the second.

Compared with GGAUCUUCUCGAUCUAACAAAAAAGACAAAUCUGCCACAAAGCUUGAGAGCCUCUUCGGAUGCAGAGGCGGCAGCCUUCGAUGGCUCGAUAGCGCCAACGUUCUCAACUAUGACACGCAAAACGCGUGCUCCGUUGAAUGGAGUUUAUCAUG [A52C G81A G86U], GGAUCUUCUCGAUCUAACAAAAAAGACAAAUCUGCCACAAAGCUUGAGAGCCUCUUCGGAUGCAGAGGCGGCAGCCUUCGGUGGUGCGAUAGCGCCAACGUCCUCAACUAUGACACGCAAAACGCGUGCUCCGUUGAAUGGAGUUUAUCAUG [A52C C85U U102C] is lower in “polymerase ribozyme fitness (log ratio)” value: -2.1 for the first, -2.57 for the second.

Going from GGAUCUUCUCGAUCUAACAAAAAAGACAAAUCUGCCACAAAGCUUGAGAGCCUCUUCGGAUGCAGAGGCGGCAGCCUUCGGUGGCGCGAUAGCGCUAACGUUCUCAACUAUGACACGCAAAACGCGUGCACCGUUGAAUGGAGGUUCUCAUG [A52C C96U U130A U144G A147C] to GGAUCUUCUCGAUCUAACAAAAAAGACAAAUCUGCCACAAAGCUUGAGAGCCUCUUCGGAUGCAGAGGCGGCAGCCUUCGGUGGCGAGAUACCGCCAACGUUCUCAACUAUGACACGCAAAACGCGUGCUCCGUUGAAUGAAGUUUAUCAUG [A52C C87A G92C G141A], the “polymerase ribozyme fitness (log ratio)” value falls from -3.6 to at most -4.2.

First: GGAUCUUCUCGAUCUAACAAAAAAGACAAAUCUGCCACAAAGCUUGAGAGCCUCUUCGGAUGCAGAGACGGCAGCCUUCGGUGGCGCGAUAGCCCCAAUGUUCUCAAGUAUGACACGCACAACGCGUGCUCCGUUGAAUGGACUUUAUCAUG [A52C G68A G94C C99U C108G A120C G143C]
Second: GGAUCUUCUCGAUCUAACAAAAAAGACAAAUCUGCCACAAAGCUUGAGAGCCUCUUCAGAUGCAGAGGCGGCAGCCUUCGGUGGCGCGAUAGCGCCAACGUUCUCAACUAUGACACGCAAAACGCGUGCUCCGUUGAAUGGAGUUUUUCAUG [A52C G58A A147U]
The “polymerase ribozyme fitness (log ratio)” value of the first is lower: at most -4.2 for the first, -0.233 for the second.

First: GGAUCUUCUCGAUCUAACAAAAAAGACAAAUCUGCCACAAAGCUUGAGAGCCUCUUCGGAUGCAGAGGCGGCAGCCUUCGGUGGUGCGAUAGCCCCAACGUUCUCAACUAUGACACGCAAAACGCGUGCUCCGUUGAAUGCAGUUUAUCAUG [A52C C85U G94C G141C]
Second: GGAUCUUCUCGAUCUAACAAAAAAGACAAAUCUGCCACAAAGCUUGAGAGCCUCUUCGGAUGCAGAGGCGGCAGCCUUCGGUGGCGCGAUAGGGCCAACGUUCUCAACUAUGACACGCAAAACGCGUGCUCCGUUGAAUGGAGUUUAUCAUG [A52C C93G]
The “polymerase ribozyme fitness (log ratio)” value of the first is higher: -3.45 for the first, -3.65 for the second.

Going from GGAUCUUCUCGAUCUAACAAAAAAGACAAAUCUGCCACAAAGCUUGAGAGCCUCUUCAGAUGCAGAGGCGGCAGCCUUCGGUGGCGCGAUAGAGCCAACGUUCUCAACUAUGACACGUAAAACGCGUGCUCCGUUGAAUGGAGUUUAUCAUG [A52C G58A C93A C118U] to GGAUCUUCUCGAUCUAACAAAAAAGACAAAUCUGCCACAAAGCUUGAGAGCCUCUUCGGAUGCAGAGGCGGCAGCCUUCGGUGGGGUGAUAGCGCCAACGUUCUCAACUAUGACACGCAAAACGCGUGCUCCAUUGAAUGGACUUUAUCAUG [A52C C85G C87U G133A G143C], the “polymerase ribozyme fitness (log ratio)” value falls from -3.55 to -4.07.

Compared with GGAUCUUCUCGAUCUAACAAAAAAGACAAAUCUGCCACAAAGCUUGAGAGCCUCUUUGGAUGCAGAGGCGGCAGCCUUCGCUGGCGCGAUAGCGCCAACGUUCUCAACUAUGACACGCAAAACGCGUGCUCCGUUGAAUGGAGUUUAUCAUG [A52C C57U G81C], GGAUCUUCUCGAUCUAACAAAAAAGACAAAUCUGCCACAAAGCUUGAGAGCCUCUUCGGAUGCAGAGGCGGCAGCCUUCGGUGGAGCGAUAGCGCCAACGUUCUCAACUAUGACACGCAAGACGCGUGCUCCGUUGAAUGGAGUUUAUCAUG [A52C C85A A121G] is lower in “polymerase ribozyme fitness (log ratio)” value: -1.59 for the first, -1.8 for the second.

Compared with GGAUCUUCUCGAUCUAACAAAAAAGACAAAUCUGCCACAAAGCUUGAGAGCCUCUUCGGAUGCAGAGGCGGCAGCCUUCGGUGGUGCGAUAGCGCCAACGUUCUCAACUAUGACACGCAAAACGCGUGCUCCGUUGAAUGGAGUUUGUCAUG [A52C C85U A147G], GGAUCUUCUCGAUCUAACAAAAAAGACAAAUCUGCCACAAAGCUUGAGAGCCUCUUUGGAUGCAGAGGCGGCAGCCUUCGGUGGCGCGAUAGCGCCAACGUUCUCAACUAUGACACGCAAAACGCGUGCUCCUUUGAAUGGAGUUUAUCAUG [A52C C57U G133U] is lower in “polymerase ribozyme fitness (log ratio)” value: -3.76 for the first, at most -4.2 for the second.

In the case of GGAUCUUCUCGAUCUAACAAAAAAGACAAAUCUGCCACAAAGCUUGAGAGCCUCUUCUAAUGCAGAGGCGGCAGCCUUCGGUGGAGCGAUAGCGCCAACGUUCUCAACUAUGACACGCAAAACGCGUGCUCCGUUGAAUGGAGUUUAUCAUG [A52C G58U G59A C85A], the “polymerase ribozyme fitness (log ratio)” value is reported as -2.15.
